Target: PU.1 (PU pECE) (Mus musculus) (UniProt P17433)
Assay: cell_activity
Conditions: 8 copies upstream of TK-CAT in HeLa; 1 copy 3.5-3.6 fold, 4 copies 3.9-4.3 fold

Substance: PU-1 (SV40 enhancer PU box)
- activity: 18.3 fold

From patent US5580958
